# Assay results published in PMC4735112, “The Functional Unit of Neisseria meningitidis 3-Deoxy-ᴅ-Arabino-Heptulosonate 7-Phosphate Synthase Is Dimeric” (PLoS ONE, 2016).
# What was measured:
# [1] = molecular target: Neisseria meningitidis 3-deoxy-D-arabino-heptulosonate 7-phosphate synthase, R126S variant (N. meningitidis) (UniProt Q9K169); assay: SAXS; SEC-coupled small angle X-ray scattering, 25°C, 10 mM BTP pH 7.5, 100 mM KCl, 200 μM PEP; initial 7 mg/mL (wild type) and 12 mg/mL (R126S) prior to SEC; CRYSOL fits to tetramer and tight dimer of the crystal structure
# [2] = molecular target: Neisseria meningitidis 3-deoxy-D-arabino-heptulosonate 7-phosphate synthase, R126S variant (N. meningitidis) (UniProt Q9K169); assay: AUC; sedimentation velocity, 20°C, 10 mM BTP pH 7.3, 100 mM KCl, 200 μM PEP; 0.2, 0.4 and 1.2 mg/mL; continuous size distribution model (SEDFIT)
# [3] = molecular target: Neisseria meningitidis 3-deoxy-D-arabino-heptulosonate 7-phosphate synthase, R126S variant (N. meningitidis) (UniProt Q9K169); assay: SEC
# [4] = molecular target: Neisseria meningitidis 3-deoxy-D-arabino-heptulosonate 7-phosphate synthase, R126S variant (N. meningitidis) (UniProt Q9K169); assay: crystal structure
substance,measurement,setting,value
"Neisseria meningitidis 3-deoxy-D-arabino-heptulosonate 7-phosphate synthase, R126S variant (from UniProt Q9K169 1-351) (enzyme)",stoichiometry N,[1],2
same,stoichiometry N,[2],2
same,stoichiometry N,[3],2
same,stoichiometry N,[4],4
